Test results: the DeepSol protein solubility set

Assay: soluble on expression in E. coli; label from the status in PepcDB or PDB records

| Sequence | soluble on expression in E. coli |
| --- | --- |
| MTKVALFSGGDLTYFTRDFDYFVGIDKGSSFLLKNQLPLDLAIGDFDSVSAEEFKQIKAKAKKLVMAPAEKNDTDTELALKTIFDCFGRVEIIVFGAFGGRIDHMLSNIFLPSDPDLAPFMRCFKLRDEQNLVEFFPAGQHQIEQATDMVYISFMAANGAHLSIQDAKYELTEENYFQKKIYSSNEFKDKPICFSVASGYVVVIQTKDRTLEHHHHHH | soluble |
| MKFTDKTTQADTQRTITKDGFLVVPATISKVGVFDYLATELGLKEDGIKKVARTEKSLFSDETIKSFENATLTVGHLKDGVNAKNWKQLSVGVVRNVKRVGDELTAEAWIYDEQAIKTVQEHGVEQLSCGYDCDIKPSTVQDADFEMSPMIGNHVAIVAKGRCGGSVKLADEDKTIMGKTAKILDAFLGAFGIKLSDEQKKQIEDEEKSGSEEGKEPKGEQPTKPKEKKSEPENKKEDDVEKEELEKSLKAKDEEIQQLKDAQAKRDAEVKQAAVLADAKTAFKEVNFADNATVREIQESAVVAQGIFTKDEAAKLSDEEISGAYQTAKVVVAKLADERKSLGNILLGDAEPKAAPKIDFNKTYNS | not soluble |
| MGHHHHHHSHMAERCFQQAIAFQASCAAVEACFQDLELMHRWLNPLLRCRPEGDWNLDRGSRNRFQIQIPLIYPSLECVVCDRAEGLIVWQFEGFFQGTDTWRWWQEGEHTQLDNCFRFRIAKPWVAWGFDRVAAGVTQRDMQAQLQRLKAIAETLPVASTVTDNLP | not soluble |
| MGSDKIHHHHHHMQDLLRWKNSKHRKPLILKGVRQVGKTWLLKEFARRYYNNLAYFNFDEHPEYKQFFENTKDVERILQNLMMASGQIINPKEPGTTLIVFDEIQECPNALNTLKYFCENTPHYHVACAGSLLGIALSKPASFPVGKVDFLEIGPMTFTEFLLANGDGNFVSYLDNLDRIEPIPDAFFNPLYEKLKMYFVTGGMPESVRSWTEERDVELVQQVLANILGAYERDFAKHPDPKDFPKISLIWKSLPSQLARENKKFIYKVVKEGARAREYEEALQWLCDASLAYKIYRSSAPGLPISAYDDLAAFKLYLVDVGLLRRLSLLAPSAFGEGNRLFVEFKGALSENYVLQALRNQLEAMPRYWTMDNPRHEVDFLIQRENEIIPVEVKSETNVESRSLKKFKEKYGDKVKLRVRFSLNNLRLDGDLLNIPLFITDYADKLIGMALTDQPKE | not soluble |
| MTAPGSMPLTVIGGFLGAGKTTLLNYLLKVQHSERVLVMVNDFGSINIDAELLDQGRHDRPGVVRLQNGCVCCSIGGDLMQAFLQVMSMPDRPDRIIVEASGVADPTRIAQIGRVSGGLSDEGVITLVDASAVRTLAADKYVGDIVRQQILSADIVLLNKLDLSSDAEIVETRAWLRDLAPRTRVVSCIHGEVDAVSVLGIGAGKVAPDAAGGPVDVPVPDLRRASTRHADTFHSSTLATAHRFDRRRIEYALDALPQTVLRGKGFVELEGEATPALLQLCGSRWTLDPVSTPAPPAGTHLVFIATGGRGVPRFDAPSHFEQALASRDAASADTSNLEHHHHHH | soluble |
| MSETIEIDELVFSVKRSTRRRTVGVTVERDKSLVAHLPQGVALDVATRLIASKLLWVHQKLAEHGETARDDVFRIPEFVDGEGFHLLGKHYRLKLVDVPKNVTGVPSVRFEGDRILLRREQAASGGKRIEEYYTRAAHPYLNETVQRWKRIVGVEPGRFVQVMDLGYRWGSCSEDGTLNFHWRTMQLPPRIIEYVVVHELVHIKVPNHSEKFWKMIGSVMPDYESRKAWLKQKGGELLEHHHHHH | not soluble |
| MAHHHHHHMRKEEMNRNFQNASCKEDNYIKAWLKQTENPEFYKNLNDLDDQSYTNEFVKVVDFNNFNSNFINNMMEEPFGDEFSKQKKRKAYSLFYSNEIGPNNEENYDLKNIYTSFDDSDVKYLKSLDKTPSGNMKDRVKGRYKDEHMSIKKLKRENICNENNEPIFPNNIMMDNSPYYKFRHSNKKPSYGSESTNEFFNNYDFETPIKILSSKKKSYDFKNRKDNSTNTTKENSSRENVSSNNSETKRTINFSNKTDDFNDIPFNSDNEYISSPEYMDHEQNTKYINKKQREVNFLGQKLEYKVVGNVINCSKNHPQFTLF | not soluble |
| MKVVQRKIKKSGKDRKRIGRGGSAYILDKRRITAVQNMKREAEKEKLRERFAAAANMPKDVVLGASVVTVIGNGEISIENYRGILEYTGELIRVQTKKGQIQVHGKGLQIEYYLNDEMKITGKIHTLEYEMLEHHHHHH | soluble |
| MEQPQEEAPEVREEEEKEEVAEAEGAPELNGGPQHALPSSSYTDLSRSSSPPSLLDQLQMGCDGASCGSLNMECRVCGDKASGFHYGVHACEGCKGFFRRTIRMKLEYEKCERSCKIQKKNRNKCQYCRFQKCLALGMSHNAIRFGRMPEAEKRKLVAGLTANEGSQYNPQVADLKAFSKHIYNAYLKNFNMTKKKARSILTGKASHTAPFVIHDIETLWQAEKGLVWKQLVNGLPPYKEISVHVFYRCQCTTVETVRELTEFAKSIPSFSSLFLNDQVTLLKYGVHEAIFAMLASIVNKDGLLVANGSGFVTREFLRSLRKPFSDIIEPKFEFAVKFNALELDDSDLALFIAAIILCGGE | soluble |
| DITGIPTGFTELDRMTAGFQRNDLIIVAARPSVGKTAFALNIAQNVATKTDESVAIFSLEMGAEQLVMRMLCAEGNINAQNLRTGNLTEEDWGKLTMAMGSLSNSGIYIDDTPGIRVSEIRAKCRRLKQESGLGMILIDYLQLIQGSGRSKDNRQQEVSEISRELKSIARELQVPVIALSQLSRGVEQRQDKRPMMSDI | not soluble |
| MFKSVAKLGKSPIFYLNSQRLIHIKTLTTPNENALKFLSTDGEMLQTRGSKSIVIKNTDENLINHSKLAQQIFLQCPGVESLMIGDDFLTINKDRMVHWNSIKPEIIDLLTKQLAYGEDVISKEFHAVQEEEGEGGYKINMPKFELTEEDEEVSELIEELIDTRIRPAILEDGGDIDYRGWDPKTGTVYLRLQGACTSCSSSEVTLKYGIESMLKHYVDEVKEVIQIMDPEQEIALKEFDKLEKKLESSKNTSHEK | soluble |
| MGSDKIHHHHHHMLSTVFRRTMATGRHFIAVCQMTSDNDLEKNFQAAKNMIERAGEKKCEMVFLPECFDFIGLNKNEQIDLAMATDCEYMEKYRELARKHNIWLSLGGLHHKDPSDAAHPWNTHLIIDSDGVTRAEYNKLHLFDLEIPGKVRLMESEFSKAGTEMIPPVDTPIGRLGLSICYDVRFPELSLWNRKRGAQLLSFPSAFTLNTGLAHWETLLRARAIENQCYVVAAAQTGAHNPKRQSYGHSMVVDPWGAVVAQCSERVDMCFAEIDLSYVDTLREMQPVFSHRRSDLYTLHINEKSSETGGLKFARFNIPADHIFYSTPHSFVFVNLKPVTDGHVLVSPKRVVPRLTDLTDAETADLFIVAKKVQAMLEKHHNVTSTTICVQDGKDAGQTVPHVHIHILPRRAGDFGDNEIYQKLASHDKEPERKPRSNEQMAEEAVVYRNLM | not soluble |
| RRAKALLDFERHDDDELGFRKNDIITIISQKDEHCWVGELNGLRGWFPAKFVEVLDERSKEYSIA | soluble |
| GMHSAALLQKVDELPRLPKAIAELLDVVNNEDSTVKAVSEKLSHDPVLSARVLRLANSARFGCSREVGTIDDAVVRLGMQTLRTLVIASAVVGAVPKVEGFDLADFWGNTFEVAIICQELAKRLGTLPEEAFTCGILHSIGELLIVNGDPAVAATISAAVADGADRNLMEKELLGYDNAEIGALLAQSWKFTPHLVKGIQFQNHPKSAEPYSKLAGMLAMAKQIAADWDKIPDDERTSWLAQINILAGIKVDLGGLAEKLAKMHGQGMEMGKQLA | soluble |
| SLIDMGDYTLKELETWNEKIEGIVNEMGLNYYNQEFEIISYNGMLEAEAYTGMPSRYPHWSYGKAYEKQKTLYGYDLVGLPYEMVINSNPCIAYLMKENTLLLQILTMAHVYGHNDFFKNNRLFREGTDASETVNMFKNDADTIRNYIDNPAIGNEKVEKILDAAHAIRYQTHRVIGEKRLSYEEIRNKIIQDYNSSYKPRSIIEPYEKPVEPDLSKIPLEPEDDIIYFIENYGNLQEWERNVIEIVRRETAYFIPQIETKIMNEGWASFWHYTILNELKLPDGLHLEFLKRHNDVLSPILGSLNPYYLGFKILKDIEDRYGRDKIFEVREIERDESFIRKYLTRELCEELNLFEFSKRRGEYIIDNVADEEGWKNIRNSICSGCGMNSIPVIRVVELSKKDNNLILEHLYDGRELNMQYAEETLKYVVNLWKGKVTLKTTIEGKEYRIVCDENKKICEVK | soluble |
| MDKKVTDSTQRGYYIVYLFSEDMCRLYLTLTQRVTETPRDEMERVKQDIRQQIPVGGRVQTDNAIRLSASKRAKEYERSVAVYIAYSFDNLPSDEQLVSDLKTMIGYYRQYVERTEKMTPFKQSLSDRSVVEHIHFYITAKGFYYTQEEVMNLFLSLKTKPFVILSGISGTGKTKIAQWLAESVGATEDNGQFILIPVCPDWNDGSDLLGYVDIKGDFKPGPLTNVITEAENHPDKPYFVVLDEMNLARVEHYFSDVLSVMGSRRWENGRITLSRLLPKETAGRDLFLPPNVYIIGTVNMDETTHPFSKKVLDRANTIEFNRIRLDHLDFLRDLPTVAPLSGGQEWFAARLEHHHHHH | not soluble |
| MSLLSGGLSLNDKSWQALVFDYTNDGMGWPIGALASAEQILLAMSAQLVDTDFELSLLLPEGEGEEALFELADAVAEWINHFISGLGLSGANLKHASVEAKEALEDLEEMSKLGIDEEDDLAEQAELLEQVIEHIKVCVLVLHAEFGVKPEQDTKPTVHEGGSHHHHHH | soluble |
| MDWHCVSPDGCERSEELQRIDRAYSTDYEWEFASTVDDSFEEYAMRILTDSLGSGCAWLYDLTLLGYNLQRSRQCYTVAGFELELSIPNEDPATFSEWVVVGRDIDVLGEE | not soluble |
| MGSDKIHHHHHHMTISISEPTPPASLLAIKDEIRAEALKLGFSVCGFASATDAWPNGGWLREFVQAERHGAMGWMEETLERRSHPTAMWTDAKSAVVLGVNYGPDIDPLEQLADPARAAISVYAQGDDYHDVIKKRLKVLAGWMHRRFGQEVKVFVDTAPLLEKPLAQRAGLGWQGKHTNLVSRQFGSWLFLGSVLTTLDLPADDAEVDHCGSCRACLDVCPTNAFPAPRQLDARRCISYLTIELSGPIPAEFRPAMGNRIYGCDDCLAVCPWNKFASLSNEAKLVAREALRQPSLAELAVLDDAAFRALFSKNPIKRIGRDRFVRNVLYAIGNSGDAGLMAVVEPLLDDPAPVVRGAAVWAARRLLGDDAAALKRGENDESVLAEWS | not soluble |
| MSLDKEYRITLLHNVAHYGHAEATRILLAAGARVNAVNGEGNTPLFAAVHEGHDDVARILLDAGADVTIANSYWYTPLREACRRGNTGMVRLLLEKGADVNITDNKGFTPLHAAVSAEALEAATLILDSGADINIAGRYGDTPLHYAVGLGYEEFVRLFLARGADPTIRNDRGLTPRQLAEERGFASIVELFRNWGKNTEGHHHHHH | soluble |
| MAHHHHHHMIHEMCFQELSDSILPAHNGEVALMLATGSPFTDAMTTAAPQQDVWGSSLFSLPELGTDLHSEVSQQNIEKSGSNLNCELQTASHVCNLAPVTFKEEQNKTRITESNTTFGPTPSMHCLSFGSVNAQSNIPSIANSTPNPLACSMVCTSQAPQLSFSSLMSIGNTTVPANSSSTTNGLAYQQASPVATVSNGIPAFFTTAQNGGNVVMFAPSNSQQTLCIPTPVPTMIPYYVIAPPQHTVEVNGTMAYSSLSTAPQSMPPVMCGPWTTNTGSVVGSGAPTPVSVSSASGVMPQTFVTSVTTKPSQPVSFSFPSGDSNQNSASASSIIPLCADGSGNQKAPPRGSPPSYDSLRIQITKRRQPSGRQRSGTNVHGSLQGICSYYSYNLSAALKQYEHPDFHVAKPVEQVLPVFVQMFPCELRDRTIIVLNRVVEATCGPDIATVVGIEPRSETSFITLIRTNDVWHLIHKLRCRVLMDRHGFWYAENMEQYLRLKEYCESVRRLPQQIRHFQTDGLPCMPLVVELSRSVNAASVTSLPAPPSFDEVAPIATMERHGRVATLTGSNEDGSSSPRETGEVINAAAVPLPSGVGRV | not soluble |
